Data as given in patent publication US20240092930A1 (MABWELL SHANGHAI BIOSCIENCE, published 2024).

Columns and labels:
[1] = biological target: T1, human Trop-2 on the surface of cells (CHO/Trop-2 cells; BxPC-3 cells; NCI-N87 cells) (human, UniProt P09758 27-323); experiment: FACS, CHO/Trop-2 cells
T1 construct: whole, on cells; One molecule for all cell lines; the cell line is named under assay or readout; also called Trop-2 on the surface of CHO cells; recombinant human Trop-2 protein on the surface of CHO cells
T1 sequence (looked up): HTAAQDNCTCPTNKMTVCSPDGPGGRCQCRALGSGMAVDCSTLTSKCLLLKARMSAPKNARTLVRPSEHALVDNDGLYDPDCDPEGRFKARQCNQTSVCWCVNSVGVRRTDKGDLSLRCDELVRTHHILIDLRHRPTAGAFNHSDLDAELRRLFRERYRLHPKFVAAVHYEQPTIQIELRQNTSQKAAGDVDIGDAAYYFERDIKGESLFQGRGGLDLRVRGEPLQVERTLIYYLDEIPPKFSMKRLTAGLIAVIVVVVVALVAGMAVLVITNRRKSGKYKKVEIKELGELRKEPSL
Experimental: Suspensions of CHO cells recombinantly expressing human Trop-2 (CHO/Trop-2 cells) were incubated with chimeric antibodies ch3-11, ch4-3, ch17-1, ch11-4, and ch23-12 (dilutions at concentrations of 30 μg/ml and 10 μg/ml, and serial dilutions of 9 concentrations obtained through 3-fold serially diluting a solution with an initial concentration of 5 μg/ml, 11 concentrations in total) for 30 min at 37° C. Controls as follows were set: (1) Positive Control (PC): control antibody Sacituzumab; (2) Negative Control (NC): IgG1 isotype control antibody NC-IgG1. The cells were washed 3 times with PBS, and 1:100 dilution of goat anti-human IgG-FITC (Cat.: F9512, Sigma) was added into the cell which then were incubated for 30 min. Then the cells were washed 3 times with PBS again, and the Mean Fluorescence Intensity (MFI) of the cells was measured by a flow cytometer (model B49007AD, SNAW31211, BECKMAN COULTER) to detect binding ability of the chimeric antibodies to human Trop-2 on the surface of CHO cells.

[2] = biological target: T2, recombinant human Trop-2-his protein (ACCESSION NO.: NP_002344.2, AA 1-274) (human, UniProt P09758 27-274); experiment: ELISA, coated Trop-2-his 0.2 µg/ml
T2 construct: range 27-274; also called recombinant human Trop-2 protein; recombinant human Trop-2 extracellular domain; not shown: his tag
T2 sequence (looked up): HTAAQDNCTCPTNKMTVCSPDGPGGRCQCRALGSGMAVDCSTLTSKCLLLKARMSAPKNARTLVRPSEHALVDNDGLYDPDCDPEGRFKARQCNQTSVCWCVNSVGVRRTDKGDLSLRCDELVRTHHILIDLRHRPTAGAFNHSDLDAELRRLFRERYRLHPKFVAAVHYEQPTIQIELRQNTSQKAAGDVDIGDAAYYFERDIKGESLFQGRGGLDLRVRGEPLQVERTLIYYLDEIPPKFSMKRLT
Experimental: Plates were coated with recombinant human Trop-2-his protein (ACCESSION NO.: NP_002344.2, AA 1-274) at a concentration of 0.2 μg/ml overnight at 4° C. and then blocked with 5% BSA for 60 min in a constant temperature incubator at 37° C. Chimeric antibodies ch3-11, ch4-3, ch17-1, ch11-4, and ch23-12 and control antibody Sacituzumab (serial dilutions of 8 concentrations in total obtained through 3-fold serially diluting a solution with an initial concentration of 2 μg/ml) were added into the plates which were then incubated in a constant temperature incubator at 37° C. for 60 min. The plates were washed with PBST 4 times, and 1:5000 dilution of HRP-anti-human Fc (Cat.: 109-035-098, Jackson ImmunoResearch) was added into the plates for reaction for 45 min. TMB (Cat.: ME142, GalaxyBio, Beijing) substrate was added for color development for 15 min, and then 2M HCl was added to stop reaction. Absorbances at 450 nm and at 630 nm (as reference wavelength) were read, and A450 nm-630 nm values of the wells in the plates were recorded.

[3] = biological target: T2, recombinant human Trop-2-his protein …; experiment: BLI, antibody on AHC sensor, Trop-2-his 60 nM
In short: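 Humanized antibodies at 4 μg/ml in PBS captured via Fc on anti-human IgG Fc (AHC) biosensors for 120 s; 60 nM Trop-2-his (AA 1-274) as analyte, 100 s association, 300 s dissociation. Blank-subtracted responses fitted to 1:1 Langmuir model for kinetic constants.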

[4] = biological target: T1, human Trop-2 on the surface of cells …; experiment: cell-based or functional assay

EC50 [1]: 2.32 nM
EC50 [2]: 0.271 nM
Kd [3]: 0.723 nM
Internalization percentage (%), 1 h, BxPC-3 cells, FACS [4]: 17.2%
Internalization percentage (%), 3 h, BxPC-3 cells, FACS [4]: 21.8%
Internalization percentage (%), 5 h, BxPC-3 cells, FACS [4]: 20.4%
B1: Sacituzumab (antibody, human IgG1, kappa, V domains shown)
VH: QVQLQQSGSELKKPGASVKVSCKASGYTFTNYGMNWVKQAPGQGLKWMGWINTYTGEPTYTDDFKGRFAFSLDTSVSTAYLQISSLKADDTAVYFCARGGFGSSYWYFDVWGQGSLVTVSS
VL: DIQLTQSPSSLSASVGDRVSITCKASQDVSIAVAWYQQKPGKAPKLLIYSASYRYTGVPDRFSGSGSGTDFTLTISSLQPEDFAVYYCQQHYITPLTFGAGTKVEIKR
notes: expressed in HEK293; also called control antibody Sacituzumab; Saituzumab
